The text below walks through data of article PMC11997252.

Settings in all cases: glycan lost; control: Fzd4 WT
Data set [1] is described as follows: SNAP-tag staining with membrane-impermeant dye.
A short description of data set [2]: immunofluorescence co-localisation with ER marker CANX.
Data set [3] can be described thus: surface biotinylation, streptavidin pull-down, HEK293T.
Data set [4] is described as follows: plasma membrane fractionation, Western blot.
The nature of data set [5]: cycloheximide chase, Western blot, HEK293T. Background: A western blot detects proteins with antibodies after separation by electrophoresis.

B1: Fzd4: N59/144Q (protein)
parent chain: MAWRGAGPSVPGAPGGVGLSLGLLLQLLLLLGPARGFGDEEERRCDPIRISMCQNLGYNVTKMPNLVGHELQTDAELQLTTFTPLIQYGCSSQLQFFLCSVYVPMCTEKINIPIGPCGGMCLSVKRRCEPVLKEFGFAWPESLNCSKFPPQNDHNHMCMEGPGDEEVPLPHKTPIQPGEECHSVGTNSDQYIWVKRSLNCVLKCGYDAGLYSRSAKEFTDIWMAVWASLCFISTAFTVLTFLIDSSRFSYPERPIIFLSMCYNIYSIAYIVRLTVGRERISCDFEEAAEPVLIQEGLKNTGCAIIFLLMYFFGMASSIWWVILTLTWFLAAGLKWGHEAIEMHSSYFHIAAWAIPAVKTIVILIMRLVDADELTGLCYVGNQNLDALTGFVVAPLFTYLVIGTLFIAAGLVALFKIRSNLQKDGTKTDKLERLMVKIGVFSVLYTVPATCVIACYFYEISNWALFRYSADDSNMAVEMLKIFMSLLVGITSGMWIWSAKTLHTWQKCSNRLVNSGKVKREKRGNGWVKPGKGSETVV
As for B1, the localisation_or_trafficking entry in data set [1] is recorded as “abolishes”; in data set [2], “changes”; in data set [3], “abolishes”; in data set [4] it was “abolishes”. Also, the degradation_or_half_life result in data set [5] was “decreases”.

B2: Fzd4: N144Q (protein)
parent chain: MAWRGAGPSVPGAPGGVGLSLGLLLQLLLLLGPARGFGDEEERRCDPIRISMCQNLGYNVTKMPNLVGHELQTDAELQLTTFTPLIQYGCSSQLQFFLCSVYVPMCTEKINIPIGPCGGMCLSVKRRCEPVLKEFGFAWPESLNCSKFPPQNDHNHMCMEGPGDEEVPLPHKTPIQPGEECHSVGTNSDQYIWVKRSLNCVLKCGYDAGLYSRSAKEFTDIWMAVWASLCFISTAFTVLTFLIDSSRFSYPERPIIFLSMCYNIYSIAYIVRLTVGRERISCDFEEAAEPVLIQEGLKNTGCAIIFLLMYFFGMASSIWWVILTLTWFLAAGLKWGHEAIEMHSSYFHIAAWAIPAVKTIVILIMRLVDADELTGLCYVGNQNLDALTGFVVAPLFTYLVIGTLFIAAGLVALFKIRSNLQKDGTKTDKLERLMVKIGVFSVLYTVPATCVIACYFYEISNWALFRYSADDSNMAVEMLKIFMSLLVGITSGMWIWSAKTLHTWQKCSNRLVNSGKVKREKRGNGWVKPGKGSETVV
In the case of B2, the localisation_or_trafficking entry in data set [1], in data set [3] and in data set [4] was “abolishes” throughout. In data set [5], the degradation_or_half_life entry is listed as “decreases”.

B3: Fzd4: N59Q (protein)
parent chain: MAWRGAGPSVPGAPGGVGLSLGLLLQLLLLLGPARGFGDEEERRCDPIRISMCQNLGYNVTKMPNLVGHELQTDAELQLTTFTPLIQYGCSSQLQFFLCSVYVPMCTEKINIPIGPCGGMCLSVKRRCEPVLKEFGFAWPESLNCSKFPPQNDHNHMCMEGPGDEEVPLPHKTPIQPGEECHSVGTNSDQYIWVKRSLNCVLKCGYDAGLYSRSAKEFTDIWMAVWASLCFISTAFTVLTFLIDSSRFSYPERPIIFLSMCYNIYSIAYIVRLTVGRERISCDFEEAAEPVLIQEGLKNTGCAIIFLLMYFFGMASSIWWVILTLTWFLAAGLKWGHEAIEMHSSYFHIAAWAIPAVKTIVILIMRLVDADELTGLCYVGNQNLDALTGFVVAPLFTYLVIGTLFIAAGLVALFKIRSNLQKDGTKTDKLERLMVKIGVFSVLYTVPATCVIACYFYEISNWALFRYSADDSNMAVEMLKIFMSLLVGITSGMWIWSAKTLHTWQKCSNRLVNSGKVKREKRGNGWVKPGKGSETVV
Consider B3, for which the localisation_or_trafficking result in data set [1], in data set [3] and in data set [4] was “abolishes” in each case. The degradation_or_half_life result in data set [5] is “decreases”.
